Legend:
HeLa Kyoto [1] = experiment: thermal stability score vs G1/S (z-score of summed log2 fold changes over temperatures); higher = more thermally stable than in G1/S
HeLa Kyoto [2] = experiment: solubility change mitosis vs G1/S (difference of NP-40 vs SDS log2 ratios) (log2 ratio difference); higher = more soluble in mitosis
HeLa Kyoto [3] = experiment: solubility in G1/S (NP-40 vs SDS abundance) (log2 ratio); higher = more soluble; details: cell cycle stage: G1/S
HeLa Kyoto [4] = experiment: melting temperature (median over replicates), in situ; higher = more thermally stable
[5] = cell cycle stage: early G1 (4.5 h after nocodazole release)
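Wherever melting temperature (median over replicates), in situ is given: HeLa Kyoto cells synchronized by double thymidine or nocodazole block, proteins quantified by TMT10plex mass spectrometry, three independent biological replicates.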
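Wherever solubility change mitosis vs G1/S (difference of NP-40 vs SDS log2 ratios) is given: synchronized HeLa Kyoto cells (double thymidine block for G1/S, nocodazole release for mitosis), protein amounts in NP-40 versus SDS lysates quantified by mass spectrometry, three biological replicates.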
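Wherever solubility in G1/S (NP-40 vs SDS abundance) is given: HeLa Kyoto cells arrested at G1/S by double thymidine block, proteins quantified by TMT10plex mass spectrometry in mild NP-40 versus SDS extracts, three biological replicates.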
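Wherever thermal stability score vs G1/S (z-score of summed log2 fold changes over temperatures) is given: synchronized HeLa Kyoto cells, proteins quantified by TMT10plex mass spectrometry, three biological replicates, mitosis taken 0.5 h after nocodazole release, G1/S directly after double thymidine block.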

| Substance | thermal stability score (HeLa Kyoto [1]; [5]) | thermal stability score (HeLa Kyoto [1]; cell cycle stage: mitosis) | solubility change mitosis (log2) (HeLa Kyoto [2]) | solubility in G1/S (log2) (HeLa Kyoto [3]) | melting temperature (HeLa Kyoto [4]; cell cycle stage: G1/S) [°C] | melting temperature (HeLa Kyoto [4]; cell cycle stage: mitosis) [°C] |
| --- | --- | --- | --- | --- | --- | --- |
| MEFSGRKWRKLRLAGDQRNASYPHCLQFYLQPPSENISLIEFENLAIDRVKLLKSVENLGVSYVKGTEQYQSKLESELRKLKFSYRENLEDEYEPRRRDHISHFILRLAYCQSEELRRWFIQQEMDLLRFRFSILPKDKIQDFLKDSQLQFEAISDEEKTLREQEIVASSPSLSGLKLGFESIYKIPFADALDLFRGRKVYLEDGFAYVPLKDIVAIILNEFRAKLSKALALTARSLPAVQSDERLQPLLNHLSHSYTGQDYSTQGNVGKISLDQIDLLSTKSFPPCMRQLHKALRENHHLRHGGRMQYGLFLKGIGLTLEQALQFWKQEFIKGKMDPDKFDKGYSYNIRHSFGKEGKRTDYTPFSCLKIILSNPPSQGDYHGCPFRHSDPELLKQKLQSYKISPGGISQILDLVKGTHYQVACQKYFEMIHNVDDCGFSLNHPNQFFCESQRILNGGKDIKKEPIQPETPQPKPSVQKTKDASSALASLNSSLEMDMEGLEDYFSEDS [PRIM2] | 0.648 | 2.05 | -0.116 | 0.23 | 48.9 | 49 |
| MLRRRGSPGMGVHVGAALGALWFCLTGALEVQVPEDPVVALVGTDATLCCSFSPEPGFSLAQLNLIWQLTDTKQLVHSFAEGQDQGSAYANRTALFPDLLAQGNASLRLQRVRVADEGSFTCFVSIRDFGSAAVSLQVAAPYSKPSMTLEPNKDLRPGDTVTITCSSYQGYPEAEVFWQDGQGVPLTGNVTTSQMANEQGLFDVHSILRVVLGANGTYSCLVRNPVLQQDAHSSVTITPQRSPTGAVEVQVPEDPVVALVGTDATLRCSFSPEPGFSLAQLNLIWQLTDTKQLVHSFTEGRDQGSAYANRTALFPDLLAQGNASLRLQRVRVADEGSFTCFVSIRDFGSAAVSLQVAAPYSKPSMTLEPNKDLRPGDTVTITCSSYRGYPEAEVFWQDGQGVPLTGNVTTSQMANEQGLFDVHSVLRVVLGANGTYSCLVRNPVLQQDAHGSVTITGQPMTFPPEALWVTVGLSVCLIALLVALAFVCWRKIKQSCEEENAGAEDQDGEGEGSKTALQPLKHSDSKEDDGQEIA [CD276] | -2.08 | -3.76 | -0.0859 | 0.244 | 59 | 57.1 |
| MAVYVGMLRLGRLCAGSSGVLGARAALSRSWQEARLQGVRFLSSREVDRMVSTPIGGLSYVQGCTKKHLNSKTVGQCLETTAQRVPEREALVVLHEDVRLTFAQLKEEVDKAASGLLSIGLCKGDRLGMWGPNSYAWVLMQLATAQAGIILVSVNPAYQAMELEYVLKKVGCKALVFPKQFKTQQYYNVLKQICPEVENAQPGALKSQRLPDLTTVISVDAPLPGTLLLDEVVAAGSTRQHLDQLQYNQQFLSCHDPINIQFTSGTTGSPKGATLSHYNIVNNSNILGERLKLHEKTPEQLRMILPNPLYHCLGSVAGTMMCLMYGATLILASPIFNGKKALEAISRERGTFLYGTPTMFVDILNQPDFSSYDISTMCGGVIAGSPAPPELIRAIINKINMKDLVVAYGTTENSPVTFAHFPEDTVEQKAESVGRIMPHTEARIMNMEAGTLAKLNTPGELCIRGYCVMLGYWGEPQKTEEAVDQDKWYWTGDVATMNEQGFCKIVGRSKDMIIRGGENIYPAELEDFFHTHPKVQEVQVVGVKDDRMGEEICACIRLKDGEETTVEEIKAFCKGKISHFKIPKYIVFVTNYPLTISGKIQKFKLREQMERHLNL [ACSF2] | 0.261 | 0.668 | -0.0628 | 0.27 | 49.4 | 49.8 |
| MGRLASRPLLLALLSLALCRGRVVRVPTATLVRVVGTELVIPCNVSDYDGPSEQNFDWSFSSLGSSFVELASTWEVGFPAQLYQERLQRGEILLRRTANDAVELHIKNVQPSDQGHYKCSTPSTDATVQGNYEDTVQVKVLADSLHVGPSARPPPSLSLREGEPFELRCTAASASPLHTHLALLWEVHRGPARRSVLALTHEGRFHPGLGYEQRYHSGDVRLDTVGSDAYRLSVSRALSADQGSYRCIVSEWIAEQGNWQEIQEKAVEVATVVIQPSVLRAAVPKNVSVAEGKELDLTCNITTDRADDVRPEVTWSFSRMPDSTLPGSRVLARLDRDSLVHSSPHVALSHVDARSYHLLVRDVSKENSGYYYCHVSLWAPGHNRSWHKVAEAVSSPAGVGVTWLEPDYQVYLNASKVPGFADDPTELACRVVDTKSGEANVRFTVSWYYRMNRRSDNVVTSELLAVMDGDWTLKYGERSKQRAQDGDFIFSKEHTDTFNFRIQRTTEEDRGNYYCVVSAWTKQRNNSWVKSKDVFSKPVNIFWALEDSVLVVKARQPKPFFAAGNTFEMTCKVSSKNIKSPRYSVLIMAEKPVGDLSSPNETKYIISLDQDSVVKLENWTDASRVDGVVLEKVQEDEFRYRMYQTQVSDAGLYRCMVTAWSPVRGSLWREAATSLSNPIEIDFQTSGPIFNASVHSDTPSVIRGDLIKLFCIITVEGAALDPDDMAFDVSWFAVHSFGLDKAPVLLSSLDRKGIVTTSRRDWKSDLSLERVSVLEFLLQVHGSEDQDFGNYYCSVTPWVKSPTGSWQKEAEIHSKPVFITVKMDVLNAFKYPLLIGVGLSTVIGLLSCLIGYCSSHWCCKKEVQETRRERRRLMSMEMD [PTGFRN] | -2.55 | -2.42 | -0.133 | 0.0152 | 56.7 | 57.1 |
| MAMQKIFAREILDSRGNPTVEVDLHTAKGRFRAAVPSGASTGIYEALELRDGDKGRYLGKGVLKAVENINNTLGPALLQKKLSVVDQEKVDKFMIELDGTENKSKFGANAILGVSLAVCKAGAAEKGVPLYRHIADLAGNPDLILPVPAFNVINGGSHAGNKLAMQEFMILPVGASSFKEAMRIGAEVYHHLKGVIKAKYGKDATNVGDEGGFAPNILENNEALELLKTAIQAAGYPDKVVIGMDVAASEFYRNGKYDLDFKSPDDPARHITGEKLGELYKSFIKNYPVVSIEDPFDQDDWATWTSFLSGVNIQIVGDDLTVTNPKRIAQAVEKKACNCLLLKVNQIGSVTESIQACKLAQSNGWGVMVSHRSGETEDTFIADLVVGLCTGQIKTGAPCRSERLAKYNQLMRIEEALGDKAIFAGRKFRNPKAK [ENO3] | -0.939 | -1.58 | 0.0137 | 0.117 | 55.2 | 56.6 |
| MVELMFPLLLLLLPFLLYMAAPQIRKMLSSGVCTSTVQLPGKVVVVTGANTGIGKETAKELAQRGARVYLACRDVEKGELVAKEIQTTTGNQQVLVRKLDLSDTKSIRAFAKGFLAEEKHLHVLINNAGVMMCPYSKTADGFEMHIGVNHLGHFLLTHLLLEKLKESAPSRIVNVSSLAHHLGRIHFHNLQGEKFYNAGLAYCHSKLANILFTQELARRLKGSGVTTYSVHPGTVQSELVRHSSFMRWMWWLFSFFIKTPQQGAQTSLHCALTEGLEILSGNHFSDCHVAWVSAQARNETIARRLWDVSCDLLGLPID [RDH11] | -0.184 | 0.26 | -0.137 | -0.0695 | 49.5 | 50.2 |
| MADDQGCIEEQGVEDSANEDSVDAKPDRSSFVPSLFSKKKKNVTMRSIKTTRDRVPTYQYNMNFEKLGKCIIINNKNFDKVTGMGVRNGTDKDAEALFKCFRSLGFDVIVYNDCSCAKMQDLLKKASEEDHTNAACFACILLSHGEENVIYGKDGVTPIKDLTAHFRGDRCKTLLEKPKLFFIQACRGTELDDGIQADSGPINDTDANPRYKIPVEADFLFAYSTVPGYYSWRSPGRGSWFVQALCSILEEHGKDLEIMQILTRVNDRVARHFESQSDDPHFHEKKQIPCVVSMLTKELYFSQ [CASP7] | -0.531 | -2.43 | 0.00474 | 0.0897 | 53.9 | 54.2 |
| MAAAGGARLLRAASAVLGGPAGRWLHHAGSRAGSSGLLRNRGPGGSAEASRSLSVSARARSSSEDKITVHFINRDGETLTTKGKVGDSLLDVVVENNLDIDGFGACEGTLACSTCHLIFEDHIYEKLDAITDEENDMLDLAYGLTDRSRLGCQICLTKSMDNMTVRVPETVADARQSIDVGKTS [FDX1] | -0.691 | -1.73 | -0.0683 | 0.338 | 53 | 53.9 |
| MASVVLPSGSQCAAAAAAAAPPGLRLRLLLLLFSAAALIPTGDGQNLFTKDVTVIEGEVATISCQVNKSDDSVIQLLNPNRQTIYFRDFRPLKDSRFQLLNFSSSELKVSLTNVSISDEGRYFCQLYTDPPQESYTTITVLVPPRNLMIDIQKDTAVEGEEIEVNCTAMASKPATTIRWFKGNTELKGKSEVEEWSDMYTVTSQLMLKVHKEDDGVPVICQVEHPAVTGNLQTQRYLEVQYKPQVHIQMTYPLQGLTREGDALELTCEAIGKPQPVMVTWVRVDDEMPQHAVLSGPNLFINNLNKTDNGTYRCEASNIVGKAHSDYMLYVYDPPTTIPPPTTTTTTTTTTTTTILTIITDSRAGEEGSIRAVDHAVIGGVVAVVVFAMLCLLIILGRYFARHKGTYFTHEAKGADDAADADTAIINAEGGQNNSEEKKEYFI [CADM1] | 0.625 | 0.622 | -0.0334 | -0.145 | 61.3 | 58.9 |
| MERPQPDSMPQDLSEALKEATKEVHTQAENAEFMRNFQKGQVTRDGFKLVMASLYHIYVALEEEIERNKESPVFAPVYFPEELHRKAALEQDLAFWYGPRWQEVIPYTPAMQRYVKRLHEVGRTEPELLVAHAYTRYLGDLSGGQVLKKIAQKALDLPSSGEGLAFFTFPNIASATKFKQLYRSRMNSLEMTPAVRQRVIEEAKTAFLLNIQLFEELQELLTHDTKDQSPSRAPGLRQRASNKVQDSAPVETPRGKPPLNTRSQAPLLRWVLTLSFLVATVAVGLYAM [HMOX1] | 0.266 | 0.9 | -0.0689 | 0.553 | 52.6 | 53.9 |
| MAATGANAEKAESHNDCPVRLLNPNIAKMKEDILYHFNLTTSRHNFPALFGDVKFVCVGGSPSRMKAFIRCVGAELGLDCPGRDYPNICAGTDRYAMYKVGPVLSVSHGMGIPSISIMLHELIKLLYYARCSNVTIIRIGTSGGIGLEPGTVVITEQAVDTCFKAEFEQIVLGKRVIRKTDLNKKLVQELLLCSAELSEFTTVVGNTMCTLDFYEGQGRLDGALCSYTEKDKQAYLEAAYAAGVRNIEMESSVFAAMCSACGLQAAVVCVTLLNRLEGDQISSPRNVLSEYQQRPQRLVSYFIKKKLSKA [UPP1] | -4.67 | -3.64 | -0.279 | 0.102 | 56.8 | 56.3 |
| MDMLDPGLDPAASATAAAAASHDKGPEAEEGVELQEGGDGPGAEEQTAVAITSVQQAAFGDHNIQYQFRTETNGGQVTYRVVQVTDGQLDGQGDTAGAVSVVSTAAFAGGQQAVTQVGVDGAAQRPGPAAASVPPGPAAPFPLAVIQNPFSNGGSPAAEAVSGEARFAYFPASSVGDTTAVSVQTTDQSLQAGGQFYVMMTPQDVLQTGTQRTIAPRTHPYSPKIDGTRTPRDERRRAQHNEVERRRRDKINNWIVQLSKIIPDCNADNSKTGASKGGILSKACDYIRELRQTNQRMQETFKEAERLQMDNELLRQQIEELKNENALLRAQLQQHNLEMVGEGTRQ [USF2] | -0.00434 | -0.248 | 0.142 | -0.0293 | 54 | 54.6 |
| HADHA | -1.31 | 0.108 | -0.133 | 0.196 | 50.8 | 50.9 |
| MKKEHVLHCQFSAWYPFFRGVTIKSVILPLPQNVKDYLLDDGTLVVSGRDDPPTHSQPDSDDEAEEIQWSDDENTATLTAPEFPEFATKVQEAINSLGGSVFPKLNWSAPRDAYWIAMNSSLKCKTLSDIFLLFKSSDFITRDFTQPFIHCTDDSPDPCIEYELVLRKWCELIPGAEFRCFVKENKLIGISQRDYTQYYDHISKQKEEIRRCIQDFFKKHIQYKFLDEDFVFDIYRDSRGKVWLIDFNPFGEVTDSLLFTWEELISENNLNGDFSEVDAQEQDSPAFRCTNSEVTVQPSPYLSYRLPKDFVDLSTGEDAHKLIDFLKLKRNQQEDD [CDC123] | 1.5 | 0.565 | -0.111 | -0.058 | 51.7 | 50.8 |
